We go through seven molecules from article PMC4717258, “Sulfoxides, Analogues of L-Methionine and L-Cysteine As Pro-Drugs against Gram-Positive and Gram-Negative Bacteria” (Acta Naturae, 2015).

The target of series [1] is T1, C. sporogenes MGL (Clostridium sporogenes, UniProt A0A7X5SZI3).
T1 construct: gene megL; subunit 43 kDa; PLP enzyme
T1 sequence (A0A7X5SZI3 1-400): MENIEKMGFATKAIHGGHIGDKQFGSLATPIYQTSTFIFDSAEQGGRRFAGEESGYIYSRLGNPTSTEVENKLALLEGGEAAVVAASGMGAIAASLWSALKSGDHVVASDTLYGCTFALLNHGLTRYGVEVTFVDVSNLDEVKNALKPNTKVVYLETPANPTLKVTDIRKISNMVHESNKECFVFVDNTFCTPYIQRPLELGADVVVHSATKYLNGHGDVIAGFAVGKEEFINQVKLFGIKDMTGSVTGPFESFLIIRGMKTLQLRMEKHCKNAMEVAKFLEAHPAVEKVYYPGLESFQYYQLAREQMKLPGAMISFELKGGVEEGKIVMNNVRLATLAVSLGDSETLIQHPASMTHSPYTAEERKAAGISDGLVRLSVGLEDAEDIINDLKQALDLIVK
Description: inhibition of L-Met γ-elimination, NADH-coupled with D-2-hydroxyisocaproate dehydrogenase, Dixon plot. The format is biochemical. An excerpt:
inhibition of L-Met γ-elimination, NADH-coupled with D-2-hydroxyisocaproate dehydrogenase, Dixon plot on C. sporogenes MGL

The target of series [2] is T1, C. sporogenes MGL. Description: γ-elimination steady-state kinetics, NADH-coupled with D-2-hydroxyisocaproate dehydrogenase, […] nm. The format is biochemical. Particulars: pH 8.0, 100 mM potassium phosphate, 0.1 mM PLP, 1 mM DTT, 1 mM EDTA, 30 °C.
Series [3] concerns the target T1, C. sporogenes MGL. Description: absorption spectrum of holoenzyme, lognormal deconvolution of internal aldimine bands. Particulars: covalent internal aldimine; pH 8.0, 25 °C, working buffer without PLP. Type of series: binding.
Substrate in series [4]: CSCC[C@H](N)C(=O)O
Description: purified protein. Type of series: biochemical, Clostridium sporogenes. The settings on record: pH 8.0, 100 mM potassium phosphate, 0.1 mM PLP, 1 mM DTT, 1 mM EDTA, 30 °C.

Substrate in series [5]: CC[S+]([O-])CC[C@H](N)C(=O)O
Briefly: purified protein. Type of series: biochemical, Clostridium sporogenes. The settings on record: pH 8.0, 100 mM potassium phosphate, 0.1 mM PLP, 1 mM DTT, 1 mM EDTA, 30 °C.

Substrate in series [6]: C=CC[S+]([O-])C[C@H](N)C(=O)O
Description: purified protein. Type of series: biochemical, Clostridium sporogenes. Particulars: pH 8.0, 100 mM potassium phosphate, 0.1 mM PLP, 1 mM DTT, 1 mM EDTA, 30 °C.

Substrate in series [7]: CCSC[C@H](N)C(=O)O
Briefly: purified protein. The format is biochemical, Clostridium sporogenes. Particulars: pH 8.0, 100 mM potassium phosphate, 0.1 mM PLP, 1 mM DTT, 1 mM EDTA, 30 °C.

Substrate in series [8]: CC[S+]([O-])C[C@H](N)C(=O)O
Briefly: purified protein. The format is biochemical, Clostridium sporogenes. The settings on record: pH 8.0, 100 mM potassium phosphate, 0.1 mM PLP, 1 mM DTT, 1 mM EDTA, 30 °C.

Substrate in series [9]: CC(=O)OC[C@H](N)C(=O)O
Briefly: purified protein. Type of series: biochemical, Clostridium sporogenes. The settings on record: pH 8.0, 100 mM potassium phosphate, 0.1 mM PLP, 1 mM DTT, 1 mM EDTA, 30 °C.

Substrate in series [10]: CC(=O)OCC[C@H](N)C(=O)O
Description: purified protein. The format is biochemical, Clostridium sporogenes. Particulars: pH 8.0, 100 mM potassium phosphate, 0.1 mM PLP, 1 mM DTT, 1 mM EDTA, 30 °C.

Substrate in series [11]: C[S+]([O-])CC[C@H](N)C(=O)O
Briefly: purified protein. The format is biochemical, Clostridium sporogenes. Particulars: pH 8.0, 100 mM potassium phosphate, 0.1 mM PLP, 1 mM DTT, 1 mM EDTA, 30 °C.

In general, Ki refers to the equilibrium dissociation constant of an inhibitor or competing ligand from its target. A low value points to higher affinity. In turn, `CC[C@H](N)C(=O)O` [L-Abu] registered a Ki on C. sporogenes MGL [1] of 2 mM.
`CCC[C@H](N)C(=O)O` [L-Nva]: the Ki at C. sporogenes MGL [1] stood at 1.9 mM.
For orientation: Km means the substrate concentration at which the rate is half of its maximum. On to `CCSCC[C@H](N)C(=O)O` [S-Et-L-Hcy], for which the Km at C. sporogenes MGL [2] turned out to be 240 µM.
`CCCC[C@H](N)C(=O)O` [L-Nle]: at C. sporogenes MGL [1], the inhibition constant Ki turned out to be 0.37 mM.
On to `Cc1ncc(COP(=O)(O)O)c(C=O)c1O` [PLP], for which the “absorption spectrum of holoenzyme, lognormal deconvolution of internal aldimine” value at C. sporogenes MGL [3] was “The ionic form of the internal aldimine and tautomeric equilibrium are almost the same”.
On to `C[C@H](N)C(=O)O` [L-Ala], for which the Ki on C. sporogenes MGL [1] came to 1.5 mM.

B1: C. sporogenes MGL (Clostridium sporogenes) (protein)
chain: T1 sequence (A0A7X5SZI3 1-400)
notes: subunit 43 kDa; PLP enzyme
What is called kcat is the number of substrate molecules converted per active site and unit of time at saturation. A word on the kcat/Km: it is the second-order rate constant that governs catalysis at low substrate concentration. For B1, the Km in “purified protein [4]” was determined as 600 µM; in “purified protein [5]”, 600 µM; in the series “purified protein [6]”, 1430 µM; in “purified protein [7]”, 430 µM; in “purified protein [8]”, 330 µM; in “purified protein [9]” it was 8010 µM. Besides, the results for the Km in the series “purified protein [10]” and in the series “purified protein [11]” were 3180 µM and 11390 µM, respectively. Further, the kcat in the series “purified protein [4]” was 21.6 s⁻¹; in “purified protein [5]”, 0.48 s⁻¹; in the series “purified protein [6]” it was 11.4 s⁻¹; in the series “purified protein [7]” it was 6.53 s⁻¹; in the series “purified protein [8]”, 1.39 s⁻¹; in the series “purified protein [10]”, 37.3 s⁻¹. Moreover, in “purified protein [11]”, the kcat worked out at 21.7 s⁻¹. The kcat/Km in the series “purified protein [4]” was 36000 M⁻¹ s⁻¹; in “purified protein [5]”, 800 M⁻¹ s⁻¹; in the series “purified protein [6]” it was 7990 M⁻¹ s⁻¹; in “purified protein [7]” it was 15200 M⁻¹ s⁻¹; in the series “purified protein [8]”, 4210 M⁻¹ s⁻¹; in “purified protein [10]” it was 11700 M⁻¹ s⁻¹. Moreover, in “purified protein [11]”, the kcat/Km came out at 1900 M⁻¹ s⁻¹.
